{
  "source": "the NTF2 design screens of Basanta et al. (2020)",
  "test": "protease stability score; higher = more stable; yeast display proteolysis, trypsin and chymotrypsin;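 note: relative to predicted unfolded state with 0 unfolded-like and 1 meaning tenfold more protease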",
  "data": [
    {"sequence": "SEEHHIIHKFLEDFLRSWITGDEKSMKELLDPHAKVDIRVNGRDVHPHGWEFLEWYKRFFKNAQFRVHDIDVQGNKVHLITEVVVNGQKEEMHIHLQVVDGRAERVETRIH", "values": [
      {"measurement": "protease stability score", "result": 1.9}
    ]},
    {"sequence": "SEEHHSEKLAIHLSKEISHTGDETWIKKMLDPNVKIVIGDKEFHGMENFVTHWHRLVKELGVDRVRHRVEDSDVQGDKLTMHVEIEVNGRKVESHIIAHKFNGRWLVKEIIFH", "values": [
      {"measurement": "protease stability score", "result": 1.23}
    ]},
    {"sequence": "SEEHKEAREFLEEWITFIHTGDEDMIHKMLDPDTRSNINGRDLHGRELAVKIIIEEVRRYRGVQIRMEREHVVDGRMESTIRVHQGEKEFEVIVHFVKINGRWRLKWIEIR", "values": [
      {"measurement": "protease stability score", "result": 1.3}
    ]},
    {"sequence": "SEEHKELRELIRITFEDLFTGDEDAFMRLFDPHTILHIGEKRYIGREIIIHALRWLGVDHMEIKHIDIQGEKVDMHMHLKVGDKSWTMHLHIEKFNGQWHSKHIEIR", "values": [
      {"measurement": "protease stability score", "result": 1.95}
    ]},
    {"sequence": "SEEHKEMKRSLDESAKALTTGDEEHVTKMVDPNVRIIIGDKTLIGMEKWHEFLKEMRVSIHHIIFRDSDIQGDKIRLDVEVDIRVHYNGREESSKIKSKIILLKFNGKWIIHAVEFD", "values": [
      {"measurement": "protease stability score", "result": 0.833}
    ]},
    {"sequence": "SEEHKLLRETLEILWDTIETGDEHKLSNLLDPRARLRVGDKEYHGREEVMRIMTEIRVDRFRLHSITLVDGRAIIHTEIDVRVNGQRFRTSVTIFLIKVDGRWFVESLQID", "values": [
      {"measurement": "protease stability score", "result": 2.4}
    ]},
    {"sequence": "SEEHKMVRDVTEDWLRLLLTGDEERLAELLDPNTRFLINGKEHHGREEAIEEWRHLRVDDFRIKSIDIQYQGEKAYVDIDGRQRGKVNGKKQDRDIKIHFHILKINGRWTIHEVRVEIE", "values": [
      {"measurement": "protease stability score", "result": 1.56}
    ]},
    {"sequence": "SEEHKQIEEFLTRFYRFKKTGDEKMLSRMADPNYKMDIDGQDVHGREEYEEASRRFDHIHHIKLRQFERQGNKVYLDIEVDGEVNGRQTKHTSTLILLKIDGRWYIEHVHWE", "values": [
      {"measurement": "protease stability score", "result": 0.722}
    ]},
    {"sequence": "SEEHKRIEKLLRRLQDALKTGDERDIMNLLDPNVRIEINGKDLIGREVWAKIMHHLRVEDSEINIHHSRSQGNFLESDIETHRHIHVDGKDIDLTWEEHVVIIKVDGKWKIERVHIR", "values": [
      {"measurement": "protease stability score", "result": 1.17}
    ]},
    {"sequence": "SEEHKVAQHAIEIEEHVWHTGDERMLHELFDPDARLIINGQEFHGREELHRFREEMRITHMRTKEVRVQGDKMEIHVRVDVDINGKRTDIRVIIISRKVDGRWINTEIEFR", "values": [
      {"measurement": "protease stability score", "result": 0.734}
    ]},
    {"sequence": "SEEHKWVHMAFEVLLKVLKTGDEENVNRLFDPHVRVEWDGREIHGMETFTRELSHLRFKLDDFKLHHISVAEGRAIIHGRFHGRIEYGDKEHEFDSHVILFVLKVDGRWLIKKIEFR", "values": [
      {"measurement": "protease stability score", "result": 1.83}
    ]},
    {"sequence": "SEEHQTAEKMLRILLHLFLTGDEDKFEHLLDPHVRLHVGDKEIHGRELASKKLHEMVRHLRVRDVHVDTLDIQGNKMHFDTRIDVEQGDKTYILRFHWYNEKVDGRWRIHLVHYD", "values": [
      {"measurement": "protease stability score", "result": 1.68}
    ]},
    {"sequence": "SEEHRDIEIARHIWVDMLRTGDERKSKELADPHVQIHFENRIYHGREEWERMIHELIHTLGADHIEIRIHSIEVQGDKILVHFHIEFQVNGKYLRYDSRSVFIKINGQWHLRSVYII", "values": [
      {"measurement": "protease stability score", "result": 1.25}
    ]},
    {"sequence": "SEEHRDSKRAIDILVHSVRTGDEKSFESFLDPNVRIDVDGVELHGMEFATTIFREWRIHHVHIDRYRSQGDWIEVDTTMDVRYGDKTDTRKTELIILKVNGVWLLHSVIIR", "values": [
      {"measurement": "protease stability score", "result": 1.19}
    ]},
    {"sequence": "SEEHRDVAKVIHDWFHDTITGDFKTLERLMDPNARLRINGQEFHGREEVRKFLERLLRHWREHSVEIEDINVQGDKASVHSHIDGEIDGRRIRMRSIFIILKFDGQWLMHSVIVE", "values": [
      {"measurement": "protease stability score", "result": 2.68}
    ]},
    {"sequence": "SEEHRESEEASHEFRRLWETGDEKDFLKLADPHTRLEVNGKDIHGMREVTEFMKRRLHHLGFKHSDVKHEHVEVFDGKVRIEMIIEIHVNGVPLHTEVLVILTKINGKWRIHSITEEIK", "values": [
      {"measurement": "protease stability score", "result": 0.69}
    ]},
    {"sequence": "SEEHRKVEEFARHWLHNFQTGDFRRFYELVDPNVRLRQGDWEFHGREIVAEWLFVHLEHARIDDYKVNHVENYNGRSIIDSEIHGEINGRRDITRVEIILIIINGRVHYVEIRIR", "values": [
      {"measurement": "protease stability score", "result": 2.31}
    ]},
    {"sequence": "SEEHRLMEEIARIFIHLFLTGDEELFKHLADPNTRTHIHYGDKHIDLHGREQTTKFWKEHLDRVDHVEIRINDIRSIGDKAHIDGVLIMLVNGREHTIHIEIIVVVINGKDTEFEFRLI", "values": [
      {"measurement": "protease stability score", "result": 0.966}
    ]},
    {"sequence": "SEEHRLSEEIARIEVHAWITGDEHILHELLDPNTRLEVNGREYHGREIVLKMIREFWENLGAKHREVKRVRIELIDGRVTTHIKDKVSQGDKELEIIIEIITEKVNGRWVIRNMRIELR", "values": [
      {"measurement": "protease stability score", "result": 2.7}
    ]},
    {"sequence": "SEEHRQILHVMHLILELWMTGDEETLYHLADPNVRLLIDGREYHGREQIRKVWEDHHRRADHVDFRLKRFELFENHAHVHGEFIIVVNGVEFRHETELELHVVNGRVKEHNLRIK", "values": [
      {"measurement": "protease stability score", "result": 1.35}
    ]},
    {"sequence": "SEEHTIAEEAIKHLIEILETGDFRTLHRMIDPHVRFEYGDKHLHGREILIKWFEEHWEKLGVDKVEVHVKDIEIQGNKAIVIGDIVINGQRKDTVWHLIVINGRIKMIRIEEH", "values": [
      {"measurement": "protease stability score", "result": 1.7}
    ]},
    {"sequence": "SEEKDDANRHLEIFFHYFITGDESSMLREADPHVQVEQGDKHIHGMEEWVTEWSKREKELGAKHIKLEDKRIHLINGRVHLILDLIIEVGDKRRRMILIVTIDKINGRWVMSQMKLEVR", "values": [
      {"measurement": "protease stability score", "result": 1.2}
    ]},
    {"sequence": "SEEKDQLKHVLEDLLRSIITGDEERIVELLDPEVRVDVGEKHSHGRENAAHLVQKLSEELRWRDIHVRDVRLIGDKIDIETRLEGDINGRNLIFQTHRHVIKVNGRWYFRRIIIH", "values": [
      {"measurement": "protease stability score", "result": 1.38}
    ]},
    {"sequence": "SEEKEDAKIALTLLHEVIETGDERLFREMADPRVQIIVNGKELHGWKHFKEMLRILSERYDHMEIKFRDVRVVDGQVDSDVTINLHYDGREDQMEMDIIISKFDGRWFNHQVIFR", "values": [
      {"measurement": "protease stability score", "result": 1.34}
    ]},
    {"sequence": "SEEKEDIDLAMEIFLHALETGDWEELLRQMDPNVRIVIGDKETHGREEFELTLLKLGIDHFHIKDMKLINGRLHLDTRVHFNGVTVQTEIIIVKFNGRWVIEEMDFQ", "values": [
      {"measurement": "protease stability score", "result": 2.4}
    ]}
  ]
}
